Measurements published in paper PMC9709061.

Biological target: HSP90–CDC37–BRAF^V600E complex (human) (UniProt P08238)
Test: cryo-EM structure; HSP90–CDC37–BRAF^V600E complex incubated with PP5 D274N, purified by SEC, cross-linked with 1 mM BS3; one sample gave three classes: HCK (3.4 Å), HCK-P open (4.2 Å), HCK-P closed (3.9 Å); PP5 modelled by rigid-body docking

HSP90–CDC37–BRAF^V600E complex (human), sequence (P08238 whole entry, chain 1 of 3): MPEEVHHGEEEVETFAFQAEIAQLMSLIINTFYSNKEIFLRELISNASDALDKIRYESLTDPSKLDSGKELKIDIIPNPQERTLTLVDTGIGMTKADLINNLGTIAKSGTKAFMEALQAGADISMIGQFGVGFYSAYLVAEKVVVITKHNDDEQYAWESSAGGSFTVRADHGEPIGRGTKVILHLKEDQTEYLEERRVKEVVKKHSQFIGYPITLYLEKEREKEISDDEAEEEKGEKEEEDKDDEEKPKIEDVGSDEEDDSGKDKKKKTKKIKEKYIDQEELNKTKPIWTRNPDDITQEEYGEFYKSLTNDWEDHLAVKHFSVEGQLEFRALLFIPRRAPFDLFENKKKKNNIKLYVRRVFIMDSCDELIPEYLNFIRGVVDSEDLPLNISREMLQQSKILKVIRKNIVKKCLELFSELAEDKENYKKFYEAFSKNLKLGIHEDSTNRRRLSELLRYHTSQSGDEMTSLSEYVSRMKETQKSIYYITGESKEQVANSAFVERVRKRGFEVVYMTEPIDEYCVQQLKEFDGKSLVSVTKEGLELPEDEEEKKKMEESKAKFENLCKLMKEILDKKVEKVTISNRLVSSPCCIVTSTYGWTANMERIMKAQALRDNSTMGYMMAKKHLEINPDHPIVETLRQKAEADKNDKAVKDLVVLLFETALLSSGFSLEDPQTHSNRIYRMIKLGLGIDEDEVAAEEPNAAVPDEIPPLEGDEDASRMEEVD
HSP90–CDC37–BRAF^V600E complex (human), sequence (Q16543 whole entry, chain 2 of 3, further chain): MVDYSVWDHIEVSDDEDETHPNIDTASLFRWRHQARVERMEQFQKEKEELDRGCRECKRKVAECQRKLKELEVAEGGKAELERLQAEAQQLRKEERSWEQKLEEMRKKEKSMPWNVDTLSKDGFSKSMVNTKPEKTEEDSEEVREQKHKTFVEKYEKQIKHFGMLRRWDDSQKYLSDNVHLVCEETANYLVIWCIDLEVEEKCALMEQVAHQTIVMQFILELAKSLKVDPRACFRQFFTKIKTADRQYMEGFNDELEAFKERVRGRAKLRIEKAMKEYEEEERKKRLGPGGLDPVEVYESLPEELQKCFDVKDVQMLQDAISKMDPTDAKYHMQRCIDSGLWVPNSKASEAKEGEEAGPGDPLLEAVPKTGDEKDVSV
HSP90–CDC37–BRAF^V600E complex (human), sequence (P15056 whole entry V600E, chain 3 of 3, further chain): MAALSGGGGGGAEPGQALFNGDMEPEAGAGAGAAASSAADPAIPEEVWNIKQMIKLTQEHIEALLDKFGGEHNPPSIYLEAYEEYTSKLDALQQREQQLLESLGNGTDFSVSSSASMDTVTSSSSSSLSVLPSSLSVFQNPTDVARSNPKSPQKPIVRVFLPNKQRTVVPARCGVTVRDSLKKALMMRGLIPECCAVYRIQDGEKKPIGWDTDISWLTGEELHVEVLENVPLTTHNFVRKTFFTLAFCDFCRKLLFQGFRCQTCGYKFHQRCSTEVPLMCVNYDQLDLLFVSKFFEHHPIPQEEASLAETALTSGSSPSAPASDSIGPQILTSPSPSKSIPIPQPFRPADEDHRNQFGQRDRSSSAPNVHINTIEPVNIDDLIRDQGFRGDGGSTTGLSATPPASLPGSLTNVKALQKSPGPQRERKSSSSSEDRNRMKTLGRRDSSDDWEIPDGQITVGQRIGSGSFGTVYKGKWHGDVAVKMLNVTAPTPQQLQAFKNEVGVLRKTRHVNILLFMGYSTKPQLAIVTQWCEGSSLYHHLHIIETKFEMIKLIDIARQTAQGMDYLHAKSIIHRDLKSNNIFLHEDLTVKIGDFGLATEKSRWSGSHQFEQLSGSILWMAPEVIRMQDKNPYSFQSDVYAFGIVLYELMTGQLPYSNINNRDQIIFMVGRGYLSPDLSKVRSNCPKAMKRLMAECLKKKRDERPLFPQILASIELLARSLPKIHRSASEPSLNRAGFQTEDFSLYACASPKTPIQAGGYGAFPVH

B1: PP5 D274N (enzyme)
chain: RDEPPADGALKRAEELKTQANDYFKAKDYENAIKFYSQAIELNPSNAIYYGNRSLAYLRTECYGYALGDATRAIELDKKYIKGYYRRAASNMALGKFRAALRDYETVVKVKPHDKDAKMKYQECNKIVKQKAFERAIAGDEHKRSVVDSLDIESMTIEDEYSGPKLEDGKVTISFMKELMQWYKDQKKLHRKCAYQILVQVKEVLSKLSTLVETTLKETEKITVCGDTHGQFYDLLNIFELNGLPSETNPYIFNGDFVNRGSFSVEVILTLFGFKLLYPDHFHLLRGNHETDNMNQIYGFEGEVKAKYTAQMYELFSEVFEWLPLAQCINGKVLIMHGGLFSEDGVTLDDIRKIERNRQPPDSGPMCDLLWSDPQPQNGRSISKRGVSCQFGPDVTKAFLEENNLDYIIRSHEVKAEGYEVAHGGRCVTVFSAPNYCDQMGNKASYIHLQGSDLRPQFHQFTAVPHPNVKPMAYANTLLQLGMM
stoichiometry N: 1
